Results reported in paper PMC6135694, “A high-throughput fluorescence polarization assay for discovering inhibitors targeting the DNA-binding domain of signal transducer and activator of transcription 3 (STAT3)”.

Molecular target: STAT3 127-688 (UniProt P40763 127-688)
Assay: competition (fluorescence polarization); competitor vs 20 nM Bodipy-DNA N1, 480 nM protein; 24 hr, 4 C; FP: 20 nM Bodipy-DNA, 480 nM STAT3 127-688, 25 mM Tris pH 8.5 (protein purification and DNA annealing buffer; full assay buffer not in material), NaCl < 200 uM
Conditions: protein: recombinant, blunt

Chain of STAT3 127-688 (P40763 127-688): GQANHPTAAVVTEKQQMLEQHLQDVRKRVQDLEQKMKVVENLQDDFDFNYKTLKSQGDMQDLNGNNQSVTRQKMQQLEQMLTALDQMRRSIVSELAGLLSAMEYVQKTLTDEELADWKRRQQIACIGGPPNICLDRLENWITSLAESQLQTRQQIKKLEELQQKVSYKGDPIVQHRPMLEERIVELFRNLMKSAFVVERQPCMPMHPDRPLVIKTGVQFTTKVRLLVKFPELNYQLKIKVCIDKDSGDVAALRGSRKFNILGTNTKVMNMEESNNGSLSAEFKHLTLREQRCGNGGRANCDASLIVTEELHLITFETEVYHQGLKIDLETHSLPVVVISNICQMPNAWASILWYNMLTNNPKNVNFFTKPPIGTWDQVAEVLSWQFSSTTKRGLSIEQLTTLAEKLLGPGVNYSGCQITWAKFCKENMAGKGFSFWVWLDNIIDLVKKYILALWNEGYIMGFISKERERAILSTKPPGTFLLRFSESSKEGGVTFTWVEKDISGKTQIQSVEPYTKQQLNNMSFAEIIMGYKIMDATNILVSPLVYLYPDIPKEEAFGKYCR

B1: unlabelled non-consensus DNA 12-mer (dsDNA)
DNA 1: GTACCATGGTAC
DNA 2: GTACCATGGTAC
- IC50 (self-complementary, 2 copies of strand): 2300 ± 660 nM

B2: unlabelled consensus DNA 12-mer (dsDNA)
DNA 1: ATTTCCCGTAAA
DNA 2: TTTACGGGAAAT
- IC50: 300 ± 200 nM
